From paper PMC10397247

Columns and labels:
Assay in all cases: two-hybrid library CCmax;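 note: natural log of median RNA to DNA barcode read ratio; higher means stronger binding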
4H1352-AA = target: T1, 4H1352-AA
T1 chain: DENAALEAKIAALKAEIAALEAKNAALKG

4H1401-AA = target: T2, 4H1401-AA; details: mean of both orientations
T2 chain: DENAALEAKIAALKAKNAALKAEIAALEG

4H1513-AA = target: T3, 4H1513-AA; details: mean of both orientations
T3 chain: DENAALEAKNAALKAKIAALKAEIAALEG

4H1552-AA = target: T4, 4H1552-AA; details: mean of both orientations
T4 chain: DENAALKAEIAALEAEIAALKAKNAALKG

4H1636-AA = target: T5, 4H1636-AA; details: mean of both orientations
T5 chain: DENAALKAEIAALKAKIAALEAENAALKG

4H1867-AA = target: T6, 4H1867-AA; details: mean of both orientations
T6 chain: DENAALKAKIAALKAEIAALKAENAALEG

4H2078-AA = target: T7, 4H2078-AA; details: mean of both orientations
T7 chain: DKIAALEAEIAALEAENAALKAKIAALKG

4H2151-AA = target: T8, 4H2151-AA; details: mean of both orientations
T8 chain: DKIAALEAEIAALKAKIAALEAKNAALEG

4H2165-AA = target: T9, 4H2165-AA; details: mean of both orientations
T9 chain: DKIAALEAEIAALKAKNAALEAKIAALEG

4H2190-AA = target: T10, 4H2190-AA; details: mean of both orientations
T10 chain: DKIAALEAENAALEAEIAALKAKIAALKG

4H2277-AA = target: T11, 4H2277-AA; details: mean of both orientations
T11 chain: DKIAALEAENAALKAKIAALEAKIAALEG

4H234-AA = target: T12, 4H234-AA; details: mean of both orientations
T12 chain: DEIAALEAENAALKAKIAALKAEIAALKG

4H2354-AA = target: T13, 4H2354-AA; details: mean of both orientations
T13 chain: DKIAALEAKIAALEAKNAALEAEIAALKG

4H2393-AA = target: T14, 4H2393-AA; details: mean of both orientations
T14 chain: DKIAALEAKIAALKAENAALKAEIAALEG

4H2466-AA = target: T15, 4H2466-AA; details: mean of both orientations
T15 chain: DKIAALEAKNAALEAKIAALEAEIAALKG

4H2505-AA = target: T16, 4H2505-AA; details: mean of both orientations
T16 chain: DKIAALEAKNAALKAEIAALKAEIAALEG

4H2575-AA = target: T17, 4H2575-AA; details: mean of both orientations
T17 chain: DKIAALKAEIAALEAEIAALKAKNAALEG

4H2617-AA = target: T18, 4H2617-AA; details: mean of both orientations
T18 chain: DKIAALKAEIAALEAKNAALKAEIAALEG

4H2642-AA = target: T19, 4H2642-AA; details: mean of both orientations
T19 chain: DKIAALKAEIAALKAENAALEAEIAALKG

4H2729-AA = target: T20, 4H2729-AA; details: mean of both orientations
T20 chain: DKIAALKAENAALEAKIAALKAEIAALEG

4H2754-AA = target: T21, 4H2754-AA; details: mean of both orientations
T21 chain: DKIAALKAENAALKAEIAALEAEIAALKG

4H2837-AA = target: T22, 4H2837-AA; details: mean of both orientations
T22 chain: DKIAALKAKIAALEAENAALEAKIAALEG

4H2883-AA = target: T23, 4H2883-AA; details: mean of both orientations
T23 chain: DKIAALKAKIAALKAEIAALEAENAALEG

4H2944-AA = target: T24, 4H2944-AA; details: mean of both orientations
T24 chain: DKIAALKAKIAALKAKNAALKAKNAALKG

4H2949-AA = target: T25, 4H2949-AA; details: mean of both orientations
T25 chain: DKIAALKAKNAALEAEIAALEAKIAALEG

4H3112-AA = target: T26, 4H3112-AA; details: mean of both orientations
T26 chain: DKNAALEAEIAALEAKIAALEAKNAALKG

4H317-AA = target: T27, 4H317-AA; details: mean of both orientations
T27 chain: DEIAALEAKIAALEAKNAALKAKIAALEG

4H3343-AA = target: T28, 4H3343-AA; details: mean of both orientations
T28 chain: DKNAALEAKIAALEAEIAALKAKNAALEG

4H335-AA = target: T29, 4H335-AA; details: mean of both orientations
T29 chain: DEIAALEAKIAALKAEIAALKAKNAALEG

4H342-AA = target: T30, 4H342-AA; details: mean of both orientations
T30 chain: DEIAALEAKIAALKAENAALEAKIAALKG

4H3427-AA = target: T31, 4H3427-AA; details: mean of both orientations
T31 chain: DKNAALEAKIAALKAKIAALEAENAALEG

4H3606-AA = target: T32, 4H3606-AA; details: mean of both orientations
T32 chain: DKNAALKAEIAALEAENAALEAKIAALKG

4H3627-AA = target: T33, 4H3627-AA; details: mean of both orientations
T33 chain: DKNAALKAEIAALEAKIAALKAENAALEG

4H3655-AA = target: T34, 4H3655-AA; details: mean of both orientations
T34 chain: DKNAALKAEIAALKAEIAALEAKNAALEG

4H3718-AA = target: T35, 4H3718-AA; details: mean of both orientations
T35 chain: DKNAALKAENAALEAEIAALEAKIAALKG

4H3844-AA = target: T36, 4H3844-AA
T36 chain: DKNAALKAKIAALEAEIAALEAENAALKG

4H3921-AA = target: T37, 4H3921-AA; details: mean of both orientations
T37 chain: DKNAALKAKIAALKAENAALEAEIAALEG

4H429-AA = target: T38, 4H429-AA; details: mean of both orientations
T38 chain: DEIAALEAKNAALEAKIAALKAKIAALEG

4H454-AA = target: T39, 4H454-AA; details: mean of both orientations
T39 chain: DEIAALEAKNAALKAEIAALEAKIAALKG

4H48-AA = target: T40, 4H48-AA; details: mean of both orientations
T40 chain: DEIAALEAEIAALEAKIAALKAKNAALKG

4H566-AA = target: T41, 4H566-AA; details: mean of both orientations
T41 chain: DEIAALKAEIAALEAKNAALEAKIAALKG

4H605-AA = target: T42, 4H605-AA; details: mean of both orientations
T42 chain: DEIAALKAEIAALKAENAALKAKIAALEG

4H678-AA = target: T43, 4H678-AA
T43 chain: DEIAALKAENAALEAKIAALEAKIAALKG

4H717-AA = target: T44, 4H717-AA; details: mean of both orientations
T44 chain: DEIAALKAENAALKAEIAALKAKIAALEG

4H780-AA = target: T45, 4H780-AA; details: mean of both orientations
T45 chain: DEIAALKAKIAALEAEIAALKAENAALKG

4H794-AA = target: T46, 4H794-AA; details: mean of both orientations
T46 chain: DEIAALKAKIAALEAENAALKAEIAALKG

4H881-AA = target: T47, 4H881-AA; details: mean of both orientations
T47 chain: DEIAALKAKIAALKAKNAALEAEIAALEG

4H906-AA = target: T48, 4H906-AA; details: mean of both orientations
T48 chain: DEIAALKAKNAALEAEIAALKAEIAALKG

4H993-AA = target: T49, 4H993-AA; details: mean of both orientations
T49 chain: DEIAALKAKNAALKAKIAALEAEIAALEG

Q3-AA = target: T50, Q3-AA; details: mean of both orientations
T50 chain: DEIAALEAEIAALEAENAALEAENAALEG

Q7-AA = target: T51, Q7-AA; details: mean of both orientations
T51 chain: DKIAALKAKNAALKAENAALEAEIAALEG

Q8-AA = target: T52, Q8-AA; details: mean of both orientations
T52 chain: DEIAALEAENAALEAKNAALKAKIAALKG

Question: How did the interaction score (4H1352-AA) turn out when DENAALEAKIAALKAEIAALEAKNAALKG [4H1352-AA] was run?
Answer: 1.38

Question: What about the interaction score (4H1401-AA) of the same binder?
Answer: -1.64

Question: And the interaction score (4H1513-AA)?
Answer: -0.469

Question: What about the interaction score (4H1552-AA) of the same binder?
Answer: 1.47

Question: What about the interaction score (4H1636-AA) of the same binder?
Answer: -1.13

Question: What about the interaction score (4H1867-AA) of the same binder?
Answer: 0.645

Question: What about the interaction score (4H2078-AA) of the same binder?
Answer: -1.18

Question: What about the interaction score (4H2151-AA) of the same binder?
Answer: -0.65

Question: And the interaction score (4H2165-AA)?
Answer: -1.51

Question: What about the interaction score (4H2190-AA) of the same binder?
Answer: -1.16

Question: And the interaction score (4H2277-AA)?
Answer: -1.27

Question: What about the interaction score (4H234-AA) of the same binder?
Answer: -1.3

Question: And the interaction score (4H2354-AA)?
Answer: -1.74

Question: What about the interaction score (4H2393-AA) of the same binder?
Answer: -1.01

Question: What about the interaction score (4H2466-AA) of the same binder?
Answer: -1.34

Question: What about the interaction score (4H2505-AA) of the same binder?
Answer: -0.788

Question: What about the interaction score (4H2575-AA) of the same binder?
Answer: 1.45

Question: What about the interaction score (4H2617-AA) of the same binder?
Answer: 0.197

Question: And the interaction score (4H2642-AA)?
Answer: -1.13

Question: What about the interaction score (4H2729-AA) of the same binder?
Answer: 0.0997

Question: And the interaction score (4H2754-AA)?
Answer: -0.982

Question: What about the interaction score (4H2837-AA) of the same binder?
Answer: -0.514

Question: What about the interaction score (4H2883-AA) of the same binder?
Answer: 0.183

Question: What about the interaction score (4H2944-AA) of the same binder?
Answer: -0.752

Question: And the interaction score (4H2949-AA)?
Answer: -0.999

Question: And the interaction score (4H3112-AA)?
Answer: 1.11

Question: What about the interaction score (4H317-AA) of the same binder?
Answer: -0.919

Question: What about the interaction score (4H3343-AA) of the same binder?
Answer: -0.188

Question: And the interaction score (4H335-AA)?
Answer: 0.334

Question: What about the interaction score (4H342-AA) of the same binder?
Answer: 1.49

Question: And the interaction score (4H3427-AA)?
Answer: 0.842

Question: What about the interaction score (4H3606-AA) of the same binder?
Answer: -0.743

Question: And the interaction score (4H3627-AA)?
Answer: 2.33

Question: And the interaction score (4H3655-AA)?
Answer: 0.863

Question: What about the interaction score (4H3718-AA) of the same binder?
Answer: 0.714

Question: And the interaction score (4H3844-AA)?
Answer: 1.93

Question: What about the interaction score (4H3921-AA) of the same binder?
Answer: -1.28

Question: And the interaction score (4H429-AA)?
Answer: -0.813

Question: What about the interaction score (4H454-AA) of the same binder?
Answer: 1.39

Question: And the interaction score (4H48-AA)?
Answer: -0.096

Question: And the interaction score (4H566-AA)?
Answer: -1.51

Question: And the interaction score (4H605-AA)?
Answer: -1.5

Question: And the interaction score (4H678-AA)?
Answer: -0.653

Question: And the interaction score (4H717-AA)?
Answer: -1.46

Question: And the interaction score (4H780-AA)?
Answer: -1.6

Question: And the interaction score (4H794-AA)?
Answer: -1.64

Question: And the interaction score (4H881-AA)?
Answer: -0.885

Question: What about the interaction score (4H906-AA) of the same binder?
Answer: -1.39

Question: What about the interaction score (4H993-AA) of the same binder?
Answer: -0.427

Question: And the interaction score (Q3-AA)?
Answer: -0.583

Question: And the interaction score (Q7-AA)?
Answer: -1.38

Question: And the interaction score (Q8-AA)?
Answer: -1.22
